Columns and labels:
[1] = tested on: recombinant human MCP-1(1-76) starting with an N-terminal glutamine
[2] = tested on: recombinant human MCP-1 N1pE (human MCP-1 with an N-terminal pyroglutamate)

## recombinant human Aminopeptidase P (R&D Systems)
[1]
  N-terminal cleavage, Maldi-TOF mass spectrometry: cleavage of human MCP-1(1-76) bearing an N-terminal glutaminyl residue by recombinant human Aminopeptidase P
[2]
  N-terminal cleavage, Maldi-TOF mass spectrometry: conferring resistance against N-terminal degradation by post-proline cleaving enzymes, e.g. DP4 and aminopeptidase P
